Experimental data: patent US20180179273A1 (H LUNDBECK A S, published 2018)
Where “and” joins values, the source holds several entries; their conditions need not be identical. Identical values can stand only once. Like-named read-outs stand apart in the source and are kept apart here.

Columns and labels:
human alpha-synuclein [1] = molecular target: T1, human alpha-synuclein (human, UniProt P37840 1-140); assay: SPR BIAcore T200, human alpha-synuclein immobilised, antibody as analyte, 1:1 binding fit
human beta-synuclein [2] = molecular target: T2, human beta-synuclein (human, UniProt Q16143 1-134); assay: Octet (ForteBio), antibody coupled to amine-reactive sensors, synuclein in solution [Human beta-syn]
T2 construct: Screening ligand; also called Beta Panel
T2 sequence (Q16143 whole entry): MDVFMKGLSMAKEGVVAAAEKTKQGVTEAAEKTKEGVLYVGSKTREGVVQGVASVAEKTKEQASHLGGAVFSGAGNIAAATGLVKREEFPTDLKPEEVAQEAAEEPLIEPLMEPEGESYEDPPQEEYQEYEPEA
Source text: (§1) Amine reactive sensors (ForteBio, art. no. 18-0008) were used for immobilization of HuMabs. […] Activated sensors were immobilized with HuMabs during 600 seconds.

human gamma-synuclein [3] = molecular target: T3, human gamma-synuclein (human, UniProt O76070 1-127); assay: Octet (ForteBio), antibody coupled to amine-reactive sensors, synuclein in solution [continued), Human gamma-syn]
T3 construct: Screening ligand; also called Gamma Panel
T3 sequence (O76070 whole entry): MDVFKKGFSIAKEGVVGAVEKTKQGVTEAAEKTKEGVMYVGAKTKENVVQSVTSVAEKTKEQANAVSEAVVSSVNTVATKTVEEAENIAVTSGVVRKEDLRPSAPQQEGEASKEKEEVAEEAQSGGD
Source text: as §1

human alpha-synuclein [4] = molecular target: T1, human alpha-synuclein; assay: SPR BIAcore 3000, antibody captured by goat anti-human IgG on CM5 chip, human alpha-synuclein as analyte; calculated binding constants [continued) C]
human beta-synuclein [5] = molecular target: T2, human beta-synuclein; assay: Octet (ForteBio), antibody coupled to amine-reactive sensors, synuclein in solution [continued), Human beta-syn]
human gamma-synuclein [6] = molecular target: T3, human gamma-synuclein; assay: Octet (ForteBio), antibody coupled to amine-reactive sensors, synuclein in solution [continued), Human gamma-syn]; remark: listed apart in the source
human alpha-synuclein [7] = molecular target: T1, human alpha-synuclein; assay: SPR BIAcore 3000, antibody captured by goat anti-human IgG on CM5 chip, human alpha-synuclein as analyte; calculated binding constants [continued) C]; remark: listed apart in the source
human alpha-synuclein [8] = molecular target: T1, human alpha-synuclein; assay: SPR Biacore 3000, synuclein ligand format
human alpha-synuclein [9] = molecular target: T1, human alpha-synuclein; assay: SPR Biacore 3000, IgG captured by anti-human IgG on CM5 chip
human alpha-synuclein [10] = molecular target: T1, human alpha-synuclein; assay: as above; remark: listed apart in the source
human alpha-synuclein [11] = molecular target: T1, human alpha-synuclein; assay: SPR BIAcore 3000, antibody captured by goat anti-human IgG on CM5 chip, human alpha-synuclein as analyte; calculated binding constants [continued) C]; remark: listed apart in the source

Row | Binder | KD improvement (human alpha-synuclein [8]) [fold] | Ka (human alpha-synuclein [8]) [M⁻¹] | koff (human alpha-synuclein [8]) [s⁻¹] | kon (human alpha-synuclein [8]) [M⁻¹ s⁻¹] | KD improvement (human alpha-synuclein [9]) [fold] | Ka (human alpha-synuclein [9]) [M⁻¹] | Kd (human alpha-synuclein [9]) [nM] | koff (human alpha-synuclein [9]) [s⁻¹] | kon (human alpha-synuclein [9]) [M⁻¹ s⁻¹] | other results
1 | GM37 (antibody, V domains shown, also called GM37wt; GM37 wt) VH: EVQLLESGGGLVQTGGSLRLSCAASGFTFSSYAMTWVRQAPGKGLEWVSAIRSNGDRTDYADSVKGRFTISRDNSQNTLYLQMNSLRAEDTAVYYCAKNWAPFDSWGQGTLVT VL: not shown | – | – | – | – | – | – | – | – | – | Kd (human alpha-synuclein [1]): 27 nM and 28 nM; koff (human alpha-synuclein [1]): 0.0192 s⁻¹ and 0.0148 s⁻¹; kon (human alpha-synuclein [1]): 701000 M⁻¹ s⁻¹ and 528000 M⁻¹ s⁻¹; binding result (human beta-synuclein [2]): no binding; binding result (human gamma-synuclein [3]): no binding; Ka (human alpha-synuclein [4]): 2.33e+08 M⁻¹; Kd (human alpha-synuclein [4]): 4.29 nM
2 | GM37 variant 3 (antibody, V domains shown) VH: EVQLLESGGGLVQTGGSLRLSCAASGFTFSSYAMTWVRQAPGKGLEWVSAIRSHGDRTDYADSVKGRFTISRDNSQNTLYLQMNSLRAEDTAVYYCAKNWAPFDSWGQGTLVT VL: not shown | – | – | – | – | – | – | – | – | – | Kd (human alpha-synuclein [1]): 40 nM; koff (human alpha-synuclein [1]): 0.0228 s⁻¹; kon (human alpha-synuclein [1]): 577000 M⁻¹ s⁻¹
3 | GM37 variant 1 (antibody, V domains shown) VH: EVQLLESGGGLVQTGGSLRLSCAASGFTFSSYAMTWVRQAPGKGLEWVSAIRSSGDRTDYADSVKGRFTISRDNSQNTLYLQMNSLRAEDTAVYYCAKNWAPFDSWGQGTLVT VL: not shown | – | – | – | – | – | – | – | – | – | Kd (human alpha-synuclein [1]): 22 nM; koff (human alpha-synuclein [1]): 0.0137 s⁻¹; kon (human alpha-synuclein [1]): 634000 M⁻¹ s⁻¹
4 | GM285 (antibody, V domains shown, Human IgG1/kappa) VH: EVQLLESGGGLVQPGGSLRLSCAASGFTFSRFTMTWVRQAPGKGLEWVSAISGSGGGTSYADSVKGRLTVSRDNSKNTLYLQMNSLRAEDTAVYYCAKNWAPFDYWGQGTLVT VL: not shown | – | – | – | – | – | – | – | – | – | binding result (human beta-synuclein [5]): no binding; binding result (human gamma-synuclein [6]): no binding; Ka (human alpha-synuclein [7]): 2.33e+08 M⁻¹; Kd (human alpha-synuclein [7]): 4.3 nM
5 | ch2E6 (antibody, V domains shown, also called chimeric 2E6) VH: QVQLQQPGAELVKPGASVKLSCTASGYTFTSYWMHWMKQRPGRGLEWIGRIDPNSGTTKYNVNFKTKATLTVDKPSSTAYMHLSSLTSEDSAVYYCARLGHYGNLYAMDYWGQGTSVT VL: QIVLTQSPAIMSASPGEKVTMTCSASSSVSYMHWYQQKSGTSPKRWIYDTSKLASGVPTRFSGSGSGTSYSLTISSMDTEDAATYYCQQWSSNPPTFGAGTKLELK | 1 | 2.38e+08 | 0.000265 | 62900 | 1 | 1.76e+07 | 56.7 | 0.00139 | 24500 | Kd (human alpha-synuclein [8]): 4.21 nM; KD improvement (human alpha-synuclein [10]): 1 fold; Ka (human alpha-synuclein [10]): 1.76e+07 M⁻¹; Kd (human alpha-synuclein [10]): 56.7 nM; koff (human alpha-synuclein [10]): 0.00139 s⁻¹; kon (human alpha-synuclein [10]): 24500 M⁻¹ s⁻¹
6 | 2E6-HLD-1 (antibody, V domains shown, Humanized 2E6 tested as IgG; also called Humanized HLD-1) VH: QVQLVQSGAEVKKPGASVKVSCKASGYTFTSYWMHWMRQAPGQGLEWIGRIDPNSGTTKYNVNFKTRATLTVDKSTSTAYMELSSLRSEDTAVYYCARLGHYGNLYAMDYWGQGTLVT VL: EIVLTQSPATLSLSPGERATLSCSASSSVSYMHWYQQKPGQAPRRWIYDTSKLASGVPARFSGSGSGTDYTLTISSLEPEDFAVYYCQQWSSNPPTFGQGTKLEIKR | 2 | 5.81e+08 | 0.000212 | 123000 | 2.5 | 4.4e+07 | 22.7 | 0.000944 | 41600 | Kd (human alpha-synuclein [8]): 1.72 nM; KD improvement (human alpha-synuclein [10]): 2.5 fold; Ka (human alpha-synuclein [10]): 4.4e+07 M⁻¹; Kd (human alpha-synuclein [10]): 22.7 nM; koff (human alpha-synuclein [10]): 0.000944 s⁻¹; kon (human alpha-synuclein [10]): 41600 M⁻¹ s⁻¹
7 | 9C12 (antibody, V domains shown) VH: QVQLVQSGAEVKKPGASVKVSCKASGYTFTSYWMHWMRQAPGQGLEWIGRIDPNSGTTKYNVNIKTRATLTVDKSTSTAYMELSSLRSEDTAVYYCARLGHYGNLYAMDYWGQGTLVT VL: EIVLTQSPATLSLSPGERATLSCSASSSVSYMHWYQQKPGQAPRRLIYDTSKLASGVPARFSGSGSGTDYTLTISSLEPEDFAVYYCQQWSSNPPTFGQGTKLEIK | – | – | – | – | 10 | 1.78e+08 | 5.62 | 0.000278 | 49500 | –
8 | 2E6 HLD 3 (antibody, V domains shown) VH: QVQLVQSGAEVKKPGASVKVSCKASGYTFTSYWMHWMRQAPGQGLEWIGRIDPNSGTTKYNVNFKTRVTLTVDKSTSTAYMELSSLRSEDTAVYYCARLGHYGNLYAMDYWGQGTLVT VL: EIVLTQSPATLSLSPGERATLSCSASSSVSYMHWYQQKPGQAPRRWIYDTSKLASGVPARFSGSGSGTDYTLTISSLEPEDFAVYYCQQWSSNPPTFGQGTKLEIKR | 1 | 1.88e+08 | 0.00026 | 48900 | – | – | – | – | – | –
9 | 8D9 (antibody, V domains shown) VH: QVQLVQSGAEVKKPGASVKVSCKASGYTFTSYWMHWMRQAPGQGLEWIGRIDPNSGTTKYNVNFKTRATLTVDKSTSTAYMELSSLRSEDTAVYYCARLGHYGNLYAKDYWGQGTLVT VL: EIVLTQSPATLSLSPGERATLSCSASSSVSYIHWYQQKPGQAPRRWIYDTSKLASGVPARFSGSGSGTDYTLTISSLEPEDFAVYYCQQWSSNPPTFGQGTKLEIK | – | – | – | – | 8.7 | 1.53e+08 | 6.52 | 0.000483 | 74100 | –
10 | 2E6-HLD-2 (antibody, V domains shown, Humanized 2E6) VH: QVQLVQSGAEVKKPGASVKVSCKASGYTFTSYWMHWVRQAPGQGLEWIGRIDPNSGTTKYNVNFKTRATLTVDKSTSTAYMELSSLRSEDTAVYYCARLGHYGNLYAMDYWGQGTLVT VL: EIVLTQSPATLSLSPGERATLSCSASSSVSYMHWYQQKPGQAPRRWIYDTSKLASGVPARFSGSGSGTDYTLTISSLEPEDFAVYYCQQWSSNPPTFGQGTKLEIKR | 1 | 2.04e+08 | 0.000285 | 58000 | – | – | – | – | – | Kd (human alpha-synuclein [8]): 4.91 nM
11 | 7C4 (antibody, V domains shown) VH: QVQLVQSGAEVKKPGASVKVSCKASGYTFTRYWMHWMRQAPGQGPEWIGRIDPNSGTTKYNVNFKTRATLTVDKSTSTAYMELSSLRSEDTAVYYCARLGHYGNLYAMDYWGQGTLVT VL: EIVLTQSPATLSLSPGERATLSCSASSSVSFMHWYQQKPGQAPRRWIYDTSKLASGVPARFSGSGSGTDYTLTISSLEPEDFAVYYCQQWSSNPPTFGQGTKLEIK | – | – | – | – | 7 | 1.23e+08 | 8.12 | 0.000997 | 123000 | –
12 | 9E4 (antibody, V domains shown, Generated from the VH and VL of hybridoma PTA-8221; also called comparator antibody 9E4) VH: EVQLVESGGGLVQPGGSLRLSCAASGFTFSNYGMSWVRQAPGKGLEWVASISSGGGSTYYPDNVKGRFTISRDNAKNSLYLQMNSLRAEDTAVYYCARGGAGIDYWGQGTLVTVSS VL: DIQMTQSPSSLSASVGDRVTITCKSIQTLLYSSNQKNYLAWFQQKPGKAPKLLIYWASIRKSGVPSRFSGSGSGTDFTLTISSLQPEDLATYYCQQYYSYPLTFGGGTKLEIKR | – | – | – | – | – | – | – | – | – | Ka (human alpha-synuclein [11]): 2.58e+08 M⁻¹; Kd (human alpha-synuclein [11]): 3.88 nM
